Results: PMC12299905, “Pathogen Enzyme-Mediated Alkoxyamine Homolysis as a Killing Mechanism of Aspergillus fumigatus” (Journal of Fungi, 2025)
Converted amounts (≈) assume the structure as drawn.

How the values were obtained:
[1] = Homolysis kinetics / stability of alkoxyamines by EPR; assay type: physicochemical; settings: for activation energy Ea of homolysis: from kd by Arrhenius law
Method: Homolysis constants were measured by Electronic Paramagnetic Resonance (EPR) on a EMX Bruker spectrometer, with O2 as the alkyl radical scavenger, as previously reported. Thermic activation led to the liberation of nitroxide: (2,2,6,6-tetramethylpiperidin-1-yl)oxyl (TEMPO). The details of the kinetic experiments in aqueous or solvent phases and the values of homolysis rate constants (kd), activation energies (Ea), and half-life times (t1/2) are reported in Supplementary Information and Data (see below).
Indeed, the activation energies of these alkoxyamines range from 121 to 140 kJ/mol with half-life times longer than 10 days (Supplementary Table S1). Moreover, the values were measured for a mixture of the two diastereoisomers. […] The solvent effect (i.e., t-BuPh) versus H2O/1-PrOH (99:1) was also investigated. […] Overall, there is no stability concern for these molecules with respect to the subsequent biological studies.
EPR kinetic figures of homolysis rate constants ( kd), activation energies ( Ea) and half-life
Molecule Solvent T (°C)a kd (s-1)b,c Ea (kJ·mol-1)d t1/2(37 °C) (days)

[2] = system: Ku80 azole-susceptible strain; experiment: Exposure of A. fumigatus spores to alkoxyamines, azole-susceptible strain; assay type: cell-based; settings: Aspergillus fumigatus
Method: (§1) Ku80 azole-susceptible strain and FC240 azole-resistant strain were kindly provided by Prof. J.-P. Latge and Dr E. Fréalle (Lille University Hospitals, Lille, France). The latter strain harbors a 34 bp tandem repeat mutation (TR34) in the cyp51A gene promoter combined with a substitution in codon L98H. The strains of A. fumigatus were used for spore preparation as previously described. Briefly, spores were grown from frozen stocks on Sabouraud + Chloramphenicol agar tubes (BioMérieux, Marcy l’Etoile, France) at 37 °C for 7 days. Next, conidia were collected by scraping and suspending in PBS containing 0.01% Tween 20 (Sigma-Aldrich®, St. Louis, MO, USA). Spore counting was performed using a Kova® hemacytometer, and aliquots of 10^6 spores were prepared.
(§2) A. fumigatus spores were exposed to various concentrations of alkoxyamines (1, 10, 100, and 1000 µM), with each concentration in triplicate. Controls were grown alone (without alkoxyamine treatment) or exposed to the antifungal voriconazole under the same experimental conditions. Briefly, the reactions were performed in well plates in a total volume of 250 μL RPMI medium. At the end of the incubation time period (48 h), the optical densities (OD600 nm) of scrapped cultures were recorded in one set of the reactions using a spectrophotometer (Thermo Fisher Scientific, Illkirch, France). […] Experiments were repeated at least three times.

[3] = system: FC240 azole-resistant strain; experiment: Exposure of A. fumigatus spores to alkoxyamines, azole-resistant strain; assay type: cell-based; settings: Aspergillus fumigatus
Method: as §1, §2

[4] = t-BuPh, mixture of two diastereoisomers
[5] = H2O/1-PrOH 99:1, extrapolated to 37 °C
[6] = t-BuPh/DCM 99:1, extrapolated to 37 °C

Structure (SMILES) | activation energy Ea of homolysis [1, 4] [kcal/mol] | half-life time t1/2 (37 °C) of homolysis [1, 6] [days] | activation energy Ea of homolysis ([1]; t-BuPh/DCM 99:1) [kcal/mol] | also measured
CC(ON1C(C)(C)CCCC1(C)C)c1ccc(NC(=O)[C@@H]2CCCN2C(=O)CNC(=O)OCC2c3ccccc3-c3ccccc32)cc1 (stereo partly shown) [4a] | 33.34 |  |  | 
CC(ON1C(C)(C)CCCC1(C)C)c1ccc(NC(=O)[C@@H]2CCCN2C(=O)[C@H](C)NC(=O)OCC2c3ccccc3-c3ccccc32)cc1 (stereo partly shown) [4b] | 33.15 |  |  | 
CC(ON1C(C)(C)CCCC1(C)C)c1ccc(NC(=O)[C@@H]2CCCN2C(=O)CNC(=O)CCC(=O)O)cc1 (stereo partly shown) [VIa] |  | 1519 | 32.15 | half-life time t1/2 (37 °C) of homolysis [1, 5]: 10 days; activation energy Ea of homolysis ([1]; H2O/1-PrOH 99:1): 29.06 kcal/mol
CC(ON1C(C)(C)CCCC1(C)C)c1ccc(NC(=O)[C@@H]2CCCN2C(=O)[C@H](C)NC(=O)CCC(=O)O)cc1 (stereo partly shown) [VIb] |  | 3632 | 32.7 | half-life time t1/2 (37 °C) of homolysis [1, 5]: 199 days; activation energy Ea of homolysis ([1]; H2O/1-PrOH 99:1): 30.9 kcal/mol
CC(ON1C(C)(C)CCCC1(C)C)c1ccc(NC(=O)[C@@H]2CCCN2C(=O)OC(C)(C)C)cc1 (stereo partly shown) [compound 2] | 32.93 |  |  | half-life time t1/2 (37 °C) of homolysis ([1]; t-BuPh, extrapolated to 37 °C): 5395 days
CC(ON1C(C)(C)CCCC1(C)C)c1ccc(NC(=O)[C@@H]2CCCN2)cc1 (stereo partly shown) [compound 3] |  | 2554 | 32.48 | 
C[C@@H](c1ncncc1F)[C@](O)(Cn1cncn1)c1ccc(F)cc1F [voriconazole] |  |  |  | MIC [2]: 0.25 µg/mL (≈ 0.716 µM); MIC [3]: 4 µg/mL (≈ 11.5 µM)
